Source: PMC7016264, “Redox requirements for ubiquitin-like urmylation of Ahp1, a 2-Cys peroxiredoxin from yeast” (Redox Biology, 2020)

Biological target: the molecule itself
Experiment: SEC-MALS; proteins reduced with 50 mM DTT, exchanged into 20 mM HEPES pH 7.5, 100 mM NaCl, 1 mM TCEP, diluted to 125 uM; dimer to monomers

B1: His-tagged Ahp1, wild-type (recombinant) (enzyme, S. cerevisiae, UniProt P38013 1-176, looked up)
chain: MSDLVNKKFPAGDYKFQYIAISQSDADSESCKMPQTVEWSKLISENKKVIITGAPAAFSPTCTVSHIPGYINYLDELVKEKEVDQVIVVTVDNPFANQAWAKSLGVKDTTHIKFASDPGCAFTKSIGFELAVGDGVYWSGRWAMVVENGIVTYAAKETNPGTDVTVSSVESVLAHL
notes: Ahp1, 2-Cys peroxiredoxin of Saccharomyces cerevisiae; The printed mass of the His-tagged monomer is ~23.3 kDa (dimer 46.7 kDa) against ~19 kDa for untagged Ahp1, so vector-derived residues are probably present; also called wild-type Ahp1; wt Ahp1; source: E. coli, purified (His-tagged)
In the case of B1, the “stoichiometry N” value is reported as 2.
